Measured values published in the nanobody polyreactivity screen of Harvey et al. (2022).

test: yeast display, Sf9 membrane polyspecificity reagent, FACS + sequencing; frameworks hold sequencing errors
Method in brief: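 Polyreactivity labels are assigned by the sorting gate from which each nanobody was recovered. The gates were low and high (top ~1%), set on anti-HA fluorescence for expression and streptavidin fluorescence for reagent binding. Before sorting, galactose-induced (36–48 hours) yeast display cells were stained for 1 hour at 4 °C with 10% biotinylated, detergent-solubilized Sf9 membrane reagent.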

Sequence	polyreactivity (PSR sort gate)
QVQLVESGGGLVQAGGSLRLSCAACGFTFLRYVMGWYRQAPGKERELVAAISYSGGRTYYADSVKGRFTISRDNAKNTVYLQMNSLKPEDTAVYYCAAARPVGYPPVLKYAYWGQGTQVTVSS	high polyreactivity
QVQLVESGGGLVQAGGSLRLSCAACGGTFRSNAMGWYRQAPGKERELVAASTNYADSVKGRFTISRDNAKNTVYLQMNSLKPEDTAVYYCAAGPTDSQTGMDYWGQGTQVTVSS	low polyreactivity
QVQLVESGGGLVQAGGSLRLSCAACGIIFSWYAMGWYRQAPGKERELVAAISSSGGTTFYADSVKGRFTISRDKAKNTVYLQMNSLKPEDTAVYYCAVVGPPYYTWRVWRPAYDYWGQGTQVTVSS	high polyreactivity
QVQLVESGGGLVQAGGSLRLSCAACGIPLRLNAIGWYRQAPGKERELVARITWRGSTYYADSVKGRFTISRDNAKNTVYLQMNSLKPEDTAVYYCAADNRSWQPPTILPPGASDYWGQGTQVTVSS	low polyreactivity
QVQLVESGGGLVQAGGSLRLSCAACGITFTSNAMGWYRQAPGKERELVASISWSDDNTHYADSVKGRFTISRDNAKYTVYLQMNSLKPEDTAVYYCAADGTHPRPGTYKFDYWGQGTQVTVSS	low polyreactivity
QVQLVESGGGLVQAGGSLRLSCAACGRIFGGNTMGWYRQAPGKQRELVAAITVRGGSTYYADSVKGRFTISRDNAKNTVYLQMNSLKPEDTAVYYCAARRRIFPPRFGYWGQGTQVTVSS	high polyreactivity
QVQLVESGGGLVQAGGSLRLSCAACGRTFQWYPMGGFRQAPGTERELVAAISWSGTSTYYADSVKGRFTISRDNAKHTVYLQMNSLKPEDTAVYYCNKPCDVWDHDYDYWGQGTQVTVST	low polyreactivity
QVQLVESGGGLVQAGGSLRLSCAACGRTFVSYAMGWYRQAPGKERELVAAITNAGSTYYADSVKGRFTISRDNAKNTVYLQMNSLKPEDTAVYYCAATYWDYWGYGYDYWGQGTQVTVSS	high polyreactivity
QVQLVESGGGLVQAGGSLRLSCAACGSIFLSNSMGWYRQAPGKERELVADIDWTGGDTYYADSVKGRFTISRDNAMNTVYLQMNSLKPEDTAFYYCAADYGYRNLLTEYGYWVQGTQVTVSS	low polyreactivity
QVQLVESGGGLVQAGGSLRLSCAACGSIFPGYAMGWYRQAPGKERELVATIRWSSGSRTNYADSVKGRFTISRDNAKNTVYLQMNSLKPEDTAVYYCAAGSRRYKYDYWGQGTQVTVSS	high polyreactivity
QVQLVESGGGLVQAGGSLRLSCAACGSTFDVNARGWYRQAPGKERELVAAISWSDDDTYYADSVKGRFTISRDNAKNTDYLQKHSLKPEDTAVYYCAADGRYGWYYGVYNGEDYWGQGTQVTVSS	high polyreactivity
QVQLVESGGGLVQAGGSLRLSCAACGSTFGSYAMGWYRQAPGKERELVADITSGGSTYYADSVKGRFTISRDNAKNTVYLQMNSLKPEDTAVYYCAVEGWWDDYKSGAGEFNYWGQGTQVTVSS	low polyreactivity
QVQLVESGGGLVQAGGSLRLSCAACGSTFPYNAMGWYRQAPGKERELVAAISGNGDSTFYADSVKGRFTISRDNAKNTVYLQMNSLKPEDTAVYYCAAEQYYGYYFYGYWGQGTQVTVSS	high polyreactivity
QVQLVESGGGLVQAGGSLRLSCAACGSTFWYYVMGWYRQAPGKERELVAAISTRGDSTYYADSVKGRFTISRDNAKNTVYLQMNSLKAEDTAVYYCAKSRQSSGRVRFDYWGQGTQVTVSS	low polyreactivity
QVQLVESGGGLVQAGGSLRLSCAAFGFTFNAYALGWYRQAPGKERELVAGITSSGGGTYYADSVKGRFTISRDNAKNTVYLEMNSLKPEDTAVYYCNTYSYLFSRYGYWGQGTQVTVSS	high polyreactivity
QVQLVESGGGLVQAGGSLRLSCAAFGPIFQYYAMGSYRQAPGKERELVAAITRSGGSTYYADSVKGRFTISRDNAKNTVYLQMNSLKPEDTAVYYCAAYSRYTVREGYDYWGQGTQVTVSS	high polyreactivity
QVQLVESGGGLVQAGGSLRLSCAAPGSTFVAYAMGWYRQAPGKERELVAAISSVGRTNYADSVKGRFTISRDNAKNTVYLQMNSLKPEDTAVYYCAAVYVDRRKRSYYWGQGTQVTVSS	high polyreactivity
QVQLVESGGGLVQAGGSLRLSCAASAGTFWNAMGWYRQAPGKERELVATITSGSSTNYADSVKGRFTISRDNAKNTVYLQMNSLKPEDTAVYYCNARTIPWPYIVSYDYWGQGTQVTVSS	high polyreactivity
QVQLVESGGGLVQAGGSLRLSCAASALTLRTYAMGWYRQAPGKERELVAAITTGGSTYYADSVKGRFTISRDNAKNTVYLQLNSLKPEDTAVYYCAADFIRYINRLLYDYWGQGTQVTVSS	low polyreactivity
QVQLVESGGGLVQAGGSLRLSCAASARIFDTYAMGWYRQAPGKETELVDSISIDGSTYYADSVKGRFTISRDNAKNTVYLQMNSLKPEDTAVYYCNADGRYYTVRFEYWGQGTQVTVSS	low polyreactivity
QVQLVESGGGLVQAGGSLRLSCAASARIFPVYAMGWYRQAPGKERELVAAISRSAGRTYYADSVKGRFTISRDNAKNTVYLQMNRLKPEDTAVYFCAAQSPYGYDYWGQGTQVTVSS	low polyreactivity

Sequence	polyreactivity (PSR sort gate)
QVQLVESGGGLVQAGGSLRLSCAASARIYTTYAMGWYRQAPGKERELVASITTTDTRTYADSVKGRFTISRDNAKNTVYLQMNSLKPEDTAVYYCAKDRLNKGRYYRGASDYWGLGTQVTVSS	low polyreactivity
QVQLVESGGGLVQAGGSLRLSCAASARTFKPYAMGWYRQAPGKERELVAAISTRGGSTYYADSVKGRFTISRDNAKNTVYLQMNSLKPEDTAVYYCAATQPCRDYDYWGQGTQVTVSS	low polyreactivity
QVQLVESGGGLVQAGGSLRLSCAASARTFSYYTMGWSRQEPGKARELVARISNRGTNTYYADSVKGRFTISRDNAKNTVYLQMNSLKPEDTAVYYFAKYYYSSIVGYDSWGQGTQLTVSS	low polyreactivity
QVQLVESGGGLVQAGGSLRLSCAASARTYGNYAMGWYREAPGKERELVADITRRGGSTSYADSVKGRFTISRDNAKNTVYLQMNSLKPEDTAVYYCNKRTTPYYAQGISRLEYDYWGQGTQVTVSS	low polyreactivity
QVQLVESGGGLVQAGGSLRLSCAASASIFAYKAIGWYRQAPGKESELVASITNGGSTYYADSVKGRFTISRDNAKNTVYLQMNSLKQEDTAVYYCNTDFDVYSVGYDGYWGQGTQVTVSS	low polyreactivity
QVQLVESGGGLVQAGGSLRLSCAASASIFILNAMGWYRPAPGKERELVAAISWSGGRTNYADSVKGRFTISRDTAKNTVYLHMNSLKPEETAVYFCAARVTPYRGFYYWGQGTQVTVSS	high polyreactivity
QVQLVESGGGLVQAGGSLRLSCAASASIFNYYAMGRYRQAPGKERELVAAITSGGSTYYADSVKGRFSISRDNAKNTVYLQMNSVKPEDTAVYYCNKAFPYIYDYWGQGTQVTVSS	low polyreactivity
QVQLVESGGGLVQAGGSLRLSCAASASILVRYAMVCYRQAPGKKREMVSAITATSGGTYYADSVKGRFTFSLDNAKNTVYLQMYSLKPEDTAVYYCNADGGSGAYLDLTITDYDYWGQGTQVTVSS	low polyreactivity
QVQLVESGGGLVQAGGSLRLSCAASASIYAHYEMGWYRQAPGKERELVAAITASGGTTYYADSVKGRFTISRDNAKNTVYLQMNSLKPEDTAVYYCNAGKRTFLYDRDDYWGQGTQVTVSS	high polyreactivity
QVQLVESGGGLVQAGGSLRLSCAASASTFSTYAMGSYRQAPGKERELVAAISWSGGSTNYADSVKGRLTISRDIAKYTVYLQMNSLKPEDTAVYYCGARWTSRYDYWGQGTQVTVSS	high polyreactivity
QVQLVESGGGLVQAGGSLRLSCAASASTFWKYAMGWYRQAPGKEREFVAAITRSGGNTYYADSVQGRFTISRDNAKNTVFLQMNSLKPEDTAVYYCDKVTTVPYTNDYWGQGTQVTVSS	high polyreactivity
QVQLVESGGGLVQAGGSLRLSCAASASTLYYNAMAWYIQAPGKERELVAAITSGGSTSYADSVKGRFTISRDNAKNTVYLQMNSLKPEDTAVYYCAAVFYRRFDYWGQGTQVTVSS	low polyreactivity
QVQLVESGGGLVQAGGSLRLSCAASASTTYYAMGWYRQAPGKERELVAAISFSGGSTFYADSVKGRFTISRDNAKNTVYLQMNCLKPEDTGVYYCATQEGPHKLDPRGYYWGQGTQVTVSS	low polyreactivity
QVQLVESGGGLVQAGGSLRLSCAASDTPSSSMLMGWYRQAPGKERELVAAISGSDGTTYYADSVKGRFTISRDNAKNTVYLQMNSLKPEDTAVYYCAADDRVDSGYIKDDYWGQGTQVTVSS	low polyreactivity
QVQLVESGGGLVQAGGSLRLSCAASEFIFARNGMGWYRQAPGKERELVAAITNSGSTYADSVKGRFTISRDNAKNTVYLQMNSLKPEDTAVYYCNKDPGNVSSYTGGGYWGQGTQVTVSS	low polyreactivity
QVQLVESGGGLVQAGGSLRLSCAASGAIFGAITMGWYREAPGKERELVAAISKRGGSTYYADSVKGRFTSSRDNAKNTVYLQMNSLKPEDTAVYYCNATPRYLRQYVDPNWGYDYWGQGTQVTVSS	low polyreactivity
QVQLVESGGGLVQAGGSLRLSCAASGAMGCYRQAPGKERELVAGITSGGSTNYADSEKGRFTISRDNAKNTVYLQMNSLKPEDTAVYYCNAVGGPRWFSVGWPYDYWGQGTQVTVSS	low polyreactivity
QVQLVESGGGLVQAGGSLRLSCAASGATFGRNAMGWYRQAPGKERELVAAISWSASRTSYADSVKGRFTISRDNAKNTVYLQMNSLKPEDTAVYYCAARIWRSYYPYDYWGQGTQVTVSS	high polyreactivity
QVQLVESGGGLVQAGGSLRLSCAASGATFGYYAMGWYRQAPGKEMEFVARITQRGSRTYYADSVKGRFTISRDNAKNTVYLQMNSLKPEDTAVYYCDAEVWWTHNGRGAYGYDYWGQGTHVTVSS	high polyreactivity
QVQLVESGGGLVQAGGSLRLSCAASGCTIWSSAMGWYRQAPGKERELVASITWSGGSTYADSVKGRFTISRDNAKNTVYLQMNSLKPEDTAVYYCARESTLTYYSDDFDYWGQGTQVTVSS	low polyreactivity
